Laboratory results published in patent publication US20230295324A1 (published 2023).
Like-named read-outs stand apart in the source and are kept apart here.

T1: human OX40 on cells (CHO-K1/hu OX40) (human, UniProt P43489 29-277)
T1 construct: whole, on cells; Also used here for OX40 on the HEK293/OX40/NF-kb reporter cells and on human T cells in the functional assays; also called CHO-K1/OX40; human OX40 cells
T1 sequence (looked up): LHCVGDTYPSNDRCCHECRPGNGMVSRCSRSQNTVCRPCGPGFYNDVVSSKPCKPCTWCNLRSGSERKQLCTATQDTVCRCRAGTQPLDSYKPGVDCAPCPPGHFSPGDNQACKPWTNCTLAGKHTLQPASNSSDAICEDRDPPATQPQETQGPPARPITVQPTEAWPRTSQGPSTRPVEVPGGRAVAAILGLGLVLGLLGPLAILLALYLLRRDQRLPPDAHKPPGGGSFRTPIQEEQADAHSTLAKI

T2: human OX40 protein (Acro biosystem, #OX0-H5224) (human, UniProt P43489 29-216)
T2 construct: Bought recombinant protein
T2 sequence (looked up): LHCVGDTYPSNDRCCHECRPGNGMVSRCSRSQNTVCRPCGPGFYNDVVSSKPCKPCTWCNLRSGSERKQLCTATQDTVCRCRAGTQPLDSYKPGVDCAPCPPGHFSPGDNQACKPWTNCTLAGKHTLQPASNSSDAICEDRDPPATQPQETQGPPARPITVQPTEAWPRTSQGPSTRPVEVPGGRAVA


Tests used:
[1] = target: T1, human OX40 on cells (CHO-K1/hu OX40); assay: FACS, CHO-K1/hu OX40 cells
Experimental: This example is intended to investigate the in vitro binding activity of OX40×TAA bispecific antibodies obtained in Example 9 to human OX40. The antibody binding assay at the cellular level was performed using a CHO-K1 cell strain overexpressing human OX40 (CHO-K1/hu OX40). Briefly, CHO-K1/hu OX40 cells were digested, resuspended in an F12K complete medium, and washed with PBS, and the cell density was adjusted to 1×10⁶ cells/ml with PBS. The cells were seeded in a 96-well V-bottom plate (Corning, #3894) at 100 μL/well, followed by the addition of test antibodies diluted in a 3-fold gradient at concentrations that were 2 times the final concentrations at 100 μL/well. The cells were incubated at 4° C. for 1 h away from light. Thereafter, the cells in each well were rinsed twice with 100 μL of pre-cooled PBS, and centrifuged at 500 g at 4° C. for 5 min, and then the supernatant was discarded. […] The plate was incubated away from light at 4° C. for 30 min. The cells in each well were rinsed twice with 100 μL of pre-cooled PBS, and centrifuged at 500 g at 4° C. for 5 min, and then the supernatant was discarded. Finally, the cells in each well were resuspended in 200 μL of pre-cooled PBS, and the fluorescence signal values were read using NovoCyte flow cytometer (ACEA Biosciences).

[2] = target: T3, human PD-L1 on MDA-MB-231 cells (human, UniProt Q9NZQ7 19-290); assay: FACS, MDA-MB-231 cells (human PD-L1)
T3 construct: whole, on cells
Experimental: This example is intended to investigate the in vitro binding activity of OX40×TAA bispecific antibodies obtained in Example 9 to tumor-associated antigens (TAAs). […] Briefly, those cells were digested, resuspended in a complete medium, and washed with PBS, and the cell density was adjusted to 1×10⁶ cells/ml with PBS. The cells were seeded in a 96-well V-bottom plate (Corning, #3894) at 100 μL/well, and centrifuged, and then the supernatant was discarded. Then, the test antibodies diluted in a 3-fold gradient were added at 100 μL/well. The cells were incubated at 4° C. for 1 h away from light. Thereafter, the cells in each well were rinsed twice with 100 μL of pre-cooled PBS, and centrifuged at 500 g at 4° C. for 5 min, and then the supernatant was discarded. […] The plate was incubated away from light at 4° C. for 30 min. The cells in each well were rinsed twice with 100 μL of pre-cooled PBS, and centrifuged at 500 g at 4° C. for 5 min, and then the supernatant was discarded. Finally, the cells in each well were resuspended in 200 μL of pre-cooled PBS, and the fluorescence signal values were read using NovoCyte flow cytometer (ACEA Biosciences).

[3] = target: T2, human OX40 protein (Acro biosystem, …); assay: ELISA, coated human OX40 protein
Experimental: This example is intended to investigate the in vitro binding activity of the anti-OX40 HCAb monoclonal antibodies prepared in Example 1 to human and cynomolgus monkey OX40 proteins. The antibody binding assay at the protein level was performed using a human OX40 protein (Acro biosystem, #OX0-H5224) and a cynomolgus monkey OX40 protein (Novoprotein, #CB17). Briefly, a 384-well plate (PerkinElmer, #6007509) was coated with 1 μg/mL human OX40 protein and a cynomolgus monkey OX40 protein dissolved in PBS at 20 μL/well, and incubated at 4° C. overnight. The next day, the 384-well plate was washed three times with PBS containing 0.05% Tween (MEDICAGO, #09-9410-100), and blocked with PBS containing 2% milk (Bio-Rad, #170-6404) at 37° C. for 1 h. […] The plate was added with a stop buffer (BBI life sciences, #E661006-0200) at 20 μL/well, and read for OD₄₅₀₋₆₅₀ values using a plate reader (Molecular Devices, model: SpectraMax Plus). The values were analyzed with Graphad 8.0 and plotted.

[4] = target: T2, human OX40 protein (Acro biosystem, …); assay: ELISA, coated human OX40 protein; remark: listed apart in the source
[5] = target: T1, human OX40 on cells (CHO-K1/hu OX40); assay: FACS, CHO-K1/hu OX40 cells; remark: listed apart in the source
Outline: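 Binding of anti-human OX40 HCAb antibodies measured by flow cytometry on CHO-K1 cells stably overexpressing human OX40. Cells incubated with 3-fold serially diluted antibodies 1 h at 4 °C in the dark, washed, then secondary staining 30 min at 4 °C; fluorescence read by FACS.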

[6] = target: T1, human OX40 on cells (CHO-K1/hu OX40); assay: FACS, blocking of biotin-human OX40L on CHO-K1/hu OX40 cells
[7] = target: T4, cynomolgus monkey OX40 protein (Novoprotein, #CB17) (cynomolgus monkey); assay: ELISA, coated cyno OX40 protein
T4 construct: Bought recombinant protein; also called cyno OX40

[8] = target: T1, human OX40 on cells (CHO-K1/hu OX40); assay: cell-based or functional assay

T3 sequence (Q9NZQ7 19-290): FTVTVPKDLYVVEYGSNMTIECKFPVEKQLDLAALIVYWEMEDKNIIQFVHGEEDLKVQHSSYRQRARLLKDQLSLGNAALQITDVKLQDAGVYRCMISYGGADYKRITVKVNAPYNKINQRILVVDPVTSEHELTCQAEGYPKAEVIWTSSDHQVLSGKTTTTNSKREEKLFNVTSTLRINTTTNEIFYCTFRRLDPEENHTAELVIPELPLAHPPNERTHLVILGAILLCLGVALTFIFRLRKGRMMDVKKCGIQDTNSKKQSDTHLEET

EC50 [1] [nM]	Maximum MFI [1] [MFI]	EC50 [2] [nM]	EC50 [3] [nM]	EC50 [4] [nM]	Maximum OD [4] [OD]	EC50 [5] [nM]	Maximum MFI [5] [MFI]	IC50 [6] [nM]	Maximum inhibition rate (%) [6] [%]	EC50 [7] [nM]	Maximum OD [7] [OD]	EC50, HEK293/OX40/NF-kb luciferase reporter [8] [nM]	Maximum fluorescence signal value, HEK293/OX40/NF-kb luciferase reporter [8] [luminescence]	Binder
3.98	287000	1.04	–	–	–	–	–	–	–	–	–	–	–	PR003789 (bispecific antibody, human IgG1, kappa, L234A L235A, IgG-VH tetravalent symmetric structure: PR000265 IgG (anti-PD-L1) with the VH of PR002067 at the C-terminus via linker H1_15; human IgG1 Fc (L234A, L235A, P329G); also called PD-L1xOX40 bispecific antibody) light: DIQMTQSPSTLSASVGDRVTVTCRASQSIYIWLAWYQQKPGKAPNLLIYKASSLETGVPSRFSGSGSGTEFTLTISSLQPDDFATYYCQQYYGSSRTFGQGTKVEIKRTVAAPSVFIFPPSDEQLKSGTASVVCLLNNFYPREAKVQWKVDNALQSGNSQESVTEQDSKDSTYSLSSTLTLSKADYEKHKVYACEVTHQGLSSPVTKSFNRGEC heavy: EVQLVESGGGLVQPGGSLRLSCAASGFTFSSYWMSWVRQAPGKGLEWVANIKQEGSEKYYVDSVKGRFTISRDNAKNSLYLQMNSLRAEDTAVYYCARDRAVAGAFDIWGQGTMVTVSSASTKGPSVFPLAPSSKSTSGGTAALGCLVKDYFPEPVTVSWNSGALTSGVHTFPAVLQSSGLYSLSSVVTVPSSSLGTQTYICNVNHKPSNTKVDKKVEPKSCDKTHTCPPCPAPEAAGGPSVFLFPPKPKDTLMISRTPEVTCVVVDVSHEDPEVKFNWYVDGVEVHNAKTKPREEQYNSTYRVVSVLTVLHQDWLNGKEYKCKVSNKALGAPIEKTISKAKGQPREPQVYTLPPSREEMTKNQVSLTCLVKGFYPSDIAVEWESNGQPENNYKTTPPVLDSDGSFFLYSKLTVDKSRWQQGNVFSCSVMHEALHNHYTQKSLSLSPGAEPKSSDKTHTPPPPPEVQLLESGGGLVQPGGSLRLSCAASGFTFSSYAMSWVRQAPGKGLEWVSAISGRGGSTFYADSVRGRFTISRDNSKNTLYLQMNSLRAEDTAMYYCVDGTTGTTDVDYWGQGTLVTVSS
–	–	0.605	–	–	–	–	–	–	–	–	–	–	–	PR000265 (antibody, human IgG1, kappa, N297A, V domains shown, H2L2 parental antibody against PD-L1; also called anti-PD-L1 monoclonal antibody; H2L2 antibody) VH: EVQLVESGGGLVQPGGSLRLSCAASGFTFSSYWMSWVRQAPGKGLEWVANIKQEGSEKYYVDSVKGRFTISRDNAKNSLYLQMNSLRAEDTAVYYCARDRAVAGAFDIWGQGTMVTVSS VL: DIQMTQSPSTLSASVGDRVTVTCRASQSIYIWLAWYQQKPGKAPNLLIYKASSLETGVPSRFSGSGSGTEFTLTISSLQPDDFATYYCQQYYGSSRTFGQGTKVEIKR
–	–	–	< 0.05	0.0268	1.41	3.18	2240	59.9	19	0.0452	1.74	4.66	141000	PR002055 (antibody, human IgG1, V domains shown, no light chain; also called anti-OX40 HCAb antibody) VH: EVQLLESGGGLVQPGGSLRLSCAASGLTFSSYAMSWVRQAPGKGLEWISAISGGGGSTYYADSVRGRFTISRDNSKNTLYLQMNSLRAEDTAVYYCANGMTGSTDVDYWGQGTLVTVSS
